Results taken from patent US20030027152, “Generation of diagnostic tools to assay the human LHX3/P-LIM/LIM-3 factor” (Indiana University Advanced Research and Technology …, published 2003).

Tests used:
[1] = target: T1, GST-ΔLIM pLhx3 (Sus scrofa, UniProt O97581 SEQ:134-383); assay: competition; 200 ng unlabeled mutant did not compete; details: tags: N-terminal GST (pGEX-KT)
T1 chain: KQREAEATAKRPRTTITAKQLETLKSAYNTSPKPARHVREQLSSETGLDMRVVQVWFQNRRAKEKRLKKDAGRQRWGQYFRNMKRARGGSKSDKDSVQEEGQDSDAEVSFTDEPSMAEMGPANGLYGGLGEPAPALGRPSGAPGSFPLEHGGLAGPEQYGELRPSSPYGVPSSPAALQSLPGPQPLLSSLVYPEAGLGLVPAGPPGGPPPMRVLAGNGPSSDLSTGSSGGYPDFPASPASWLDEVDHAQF
Procedure: (§1) FIG. 4B is an image depicting an analysis of recombinant porcine pLhx3 protein binding to DNA target sequences. The image depicts electrophoretic mobility shift assay using labeled wild type and mutant oligonucleotides representing the −351 to −324 bp region of the porcine αGSU gene promoter. Probes were incubated with the indicated proteins and competitor DNA and the resulting complexes were separated from free probe (F) by electrophoresis. The panel on the right of the figure was exposed three times as long as the left-hand panel to detect weak binding of GST-pLhx3 to the porcine αGSU binding site (which is indicated by an arrow).

[2] = target: T2, hLhx3a (Homo sapiens, UniProt Q9UBR4 SEQ:1-397); assay: EMSA; in vitro translated; text states more effective than hLhx3b at both sites; details: label: radiolabel
T2 sequence: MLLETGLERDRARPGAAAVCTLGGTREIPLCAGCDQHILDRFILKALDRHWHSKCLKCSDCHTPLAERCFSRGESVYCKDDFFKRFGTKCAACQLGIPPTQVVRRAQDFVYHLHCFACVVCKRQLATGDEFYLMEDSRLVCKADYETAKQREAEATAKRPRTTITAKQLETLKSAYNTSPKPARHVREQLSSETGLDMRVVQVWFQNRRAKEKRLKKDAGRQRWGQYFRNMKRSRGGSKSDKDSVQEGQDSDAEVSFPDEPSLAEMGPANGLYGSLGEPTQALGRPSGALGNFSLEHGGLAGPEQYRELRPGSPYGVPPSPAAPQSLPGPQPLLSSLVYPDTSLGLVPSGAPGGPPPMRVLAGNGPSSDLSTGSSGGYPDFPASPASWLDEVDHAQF
Procedure: (§2) Radiolabeled probes were incubated with the indicated proteins and competitor DNAs and the resulting complexes were separated from free probe (F) by electrophoresis. Lane 1, unprogrammed rabbit reticulocyte lysate as a negative control (lysate); lanes 2-5 (hLhx3a; hLhx3b; hLhx3a-myc; and hLhx36-myc, respectively), reactions contained in vitro translated hLhx3 proteins including isoforms comprising a myc tag epitope. A nonspecific band is noted by an asterisk (*). Human Lhx3 protein/DNA complexes are indicated by an arrow. Lane 6 depicts the lack of binding using GST as a negative control; lanes 7-14 (GST-hLhx3a, more GST-hLhx3a, comp plus hLhx3a, GST-hLhx3b; more GST-hLhx3b, comp plus hLhx3b, GST-hLhx3a, and GST-hLhx36, respectively) depict binding of the DNA probe by recombinant hLhx3 proteins expressed in E. coli. “Comp” denotes reactions containing approximately 1000-fold molar excess of unlabeled binding site as a competitor.
(§3) Without wishing to be bound by any particular theory, mechanisms for the different activities include the possibilities that the a-specific and b-specific domains are trans-activation or trans-repression domains, respectively, or that the a- and b-specific domains mediate interaction with distinct regulatory factors, or that the a- and b-specific domains modulate the DNA binding properties of hLhx3 differently. […]

[3] = target: T3, GST-hLhx3a (Homo sapiens, UniProt Q9UBR4 SEQ:1-397); assay: EMSA; binds more effectively than GST-hLhx3b; details: tags: N-terminal GST (pGEX-KT); label: radiolabel
T3 sequence: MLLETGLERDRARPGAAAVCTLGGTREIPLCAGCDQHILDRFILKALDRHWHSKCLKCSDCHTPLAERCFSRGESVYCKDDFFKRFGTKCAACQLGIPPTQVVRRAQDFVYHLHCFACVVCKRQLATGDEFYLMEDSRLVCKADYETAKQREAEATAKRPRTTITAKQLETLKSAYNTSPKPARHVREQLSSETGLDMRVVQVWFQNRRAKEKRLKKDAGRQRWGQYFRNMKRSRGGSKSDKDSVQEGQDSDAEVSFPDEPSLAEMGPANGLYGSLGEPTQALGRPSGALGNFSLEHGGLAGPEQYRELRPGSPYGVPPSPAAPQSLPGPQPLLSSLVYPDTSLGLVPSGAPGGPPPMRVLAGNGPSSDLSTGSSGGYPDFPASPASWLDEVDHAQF
Procedure: (§4) FIG. 18B is an image of a gel depicting an electrophoretic mobility shift assay (EMSA) using Lhx3 consensus binding site (lanes 1-12) or αGSU gene −350 to −323 binding site (lanes 13 and 14) as oligonucleotide probes. Radiolabeled probes were incubated with the indicated proteins and competitor DNAs and the resulting complexes were separated from free probe (F) by electrophoresis. Lane 1, unprogrammed rabbit reticulocyte lysate as a negative control (lysate); lanes 2-5 (hLhx3a; hLhx3b; hLhx3a-myc; and hLhx36-myc, respectively), reactions contained in vitro translated hLhx3 proteins including isoforms comprising a myc tag epitope. A nonspecific band is noted by an asterisk (*). Human Lhx3 protein/DNA complexes are indicated by an arrow. Lane 6 depicts the lack of binding using GST as a negative control; lanes 7-14 (GST-hLhx3a, more GST-hLhx3a, comp plus hLhx3a, GST-hLhx3b; more GST-hLhx3b, comp plus hLhx3b, GST-hLhx3a, and GST-hLhx36, respectively) depict binding of the DNA probe by recombinant hLhx3 proteins expressed in E. coli. “Comp” denotes reactions containing approximately 1000-fold molar excess of unlabeled binding site as a competitor.

[4] = target: T4, GST (UniProt P08515 P08515:1-218); assay: EMSA; GST negative control; details: tags: GST alone, pGEX-KT; label: radiolabel
T4 sequence (P08515 whole entry, one chain of several): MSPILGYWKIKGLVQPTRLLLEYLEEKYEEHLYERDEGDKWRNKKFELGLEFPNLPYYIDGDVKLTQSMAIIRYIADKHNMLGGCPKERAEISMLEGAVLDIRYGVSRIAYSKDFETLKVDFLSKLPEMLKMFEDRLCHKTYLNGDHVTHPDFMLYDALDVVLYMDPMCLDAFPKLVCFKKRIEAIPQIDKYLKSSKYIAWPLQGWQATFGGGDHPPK
Procedure: as §1

[5] = target: T1, GST-ΔLIM pLhx3; assay: EMSA; affinity relative to full-length GST-pLhx3 (LIM deletion); competed by unlabeled wild type; details: tags: N-terminal GST (pGEX-KT); label: radiolabel
Procedure: as §1

[6] = target: T2, hLhx3a; assay: EMSA; binds more effectively than hLhx3b; details: label: radiolabel
Procedure: as §2, §3

[7] = target: T3, GST-hLhx3a; assay: EMSA; reduced by 1000-fold unlabeled competitor; details: tags: N-terminal GST (pGEX-KT); label: radiolabel
Procedure: as §4

[8] = target: T4, GST; assay: EMSA; GST negative control; details: tags: GST alone, pGEX-KT; label: radiolabel; remark: listed apart in the source
Procedure: as §4

[9] = target: T5, hLhx3a-myc (Homo sapiens, UniProt Q9UBR4 SEQ:1-397); assay: EMSA; similar to untagged; more effective than hLhx3b-myc; details: tags: C-terminal myc (pcDNA3.1/Myc-His); label: radiolabel
T5 sequence: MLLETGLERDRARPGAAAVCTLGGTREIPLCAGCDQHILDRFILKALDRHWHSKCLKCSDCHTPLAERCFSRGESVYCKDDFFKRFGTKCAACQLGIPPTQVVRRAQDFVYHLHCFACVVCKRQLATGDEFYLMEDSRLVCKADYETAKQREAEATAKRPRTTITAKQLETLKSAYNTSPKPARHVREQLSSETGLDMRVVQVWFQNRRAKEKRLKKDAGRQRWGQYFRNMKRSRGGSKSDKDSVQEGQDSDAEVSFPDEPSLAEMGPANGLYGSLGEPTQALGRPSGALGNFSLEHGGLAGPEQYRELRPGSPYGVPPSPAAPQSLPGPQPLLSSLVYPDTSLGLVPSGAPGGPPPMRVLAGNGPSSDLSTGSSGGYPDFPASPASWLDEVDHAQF
Procedure: as §2, §3

B1: porcine αGSU -351/-324 mutant (dsDNA)
DNA 1: ACATTAGGTACTTGGCGCGCCAAATGTG
DNA 2: CACATTTGGCGCGCCAAGTACCTAATGT
**Q.** Does B1 bind [1]?
**A.** no binding

B2: αGSU -350/-323 (PGBE) (dsDNA)
DNA 1: ACATTAGGTACTTAGCTAATTAAATGTG
DNA 2: CACATTTAATTAGCTAAGTACCTAATGT
**Q.** Does B2 bind [2]?
**A.** binds

**Q.** Does B2 bind [3]?
**A.** binds

B3: porcine αGSU -351/-324 wild type (dsDNA)
DNA 1: ACATTAGGTACTTAGCTAATTAAATGTG
DNA 2: CACATTTAATTAGCTAAGTACCTAATGT
**Q.** Does B3 bind [4]?
**A.** no binding

**Q.** And the binding signal [5]?
**A.** ≥ 15 fold

B4: Lhx3 consensus binding site (dsDNA)
DNA 1: CAGAAAATTAATTAATTGTAA
DNA 2: TTACAATTAATTAATTTTCTG
**Q.** What does the source list for B4?
**A.** binding result [6]: binds; binding result [7]: binds; binding result [8]: no binding; binding result [9]: binds
